# Molecular target: T1, synthetic Aβ1-42 peptide (aggregated in the ELISAs) (human, UniProt P05067 672-713)
# T1 construct: range 672-713; It was coated as aggregated peptide in the ELISAs; also called aggregated Aβ1-42; Aβ (1-42) aggregate
# Assay: competitive Aβ 1-42 ELISA; competitor biotinylated m12A11Cγ2a at a fixed concentration
binder,measurement,value
"humanized 12A11 version 1 (antibody, V domains shown, Made by transient expression in COS cells; also called h12A11v1; 12A11v1) VH: QVQLVESGGGVVQPGRSLRLSCAFSGFSLSTSGMSVGWIRQAPGKGLEWLAHIWWDDDKYYNPSLKSRLTISKDTSKNTVYLQMNSLRAEDTAVYYCARRTTTADYFAYWGQGTTVTVSS VL: DVVMTQSPLSLPVTPGEPASISCRSSQSIVHSNGNTYLEWYLQKPGQSPQLLIYKVSNRFSGVPDRFSGSGSGTDFTLKISRVEAEDVGVYYCFQSSHVPLTFGQGTKLEIK",fold of IC50 against murine and chimeric 12A11,≤ 2 fold (x IC50)

# Reference: patent publication US20050118651A1 (NEURALAB, published 2005)
